From paper PMC9606073 (Immunity, 2022)

How the values were obtained:
Details in all cases: both partners purified
SARS-CoV-2 WA1 RBD [1] = molecular target: SARS-CoV-2 WA1 RBD (SARS-CoV-2 USA-WA1/2020 (MT246667.1)); assay: ELISA
SARS-CoV-2 WA1 RBD [2] = molecular target: SARS-CoV-2 WA1 RBD (SARS-CoV-2 USA-WA1/2020 (MT246667.1)); assay: SPR
Yun11-CoV RBD = molecular target: T1, Yun11-CoV RBD (Bat coronavirus Cp/Yunnan2011 (Yun11), UniProt R9QTH3); assay: ELISA
T1 construct: source: Expi293F cells, transient transfection, purified (Ni-NTA, SEC)

Rf1-CoV RBD = molecular target: T2, Rf1-CoV RBD (Bat SARS CoV Rf1/2004, UniProt Q0QDZ0); assay: ELISA
T2 construct: source: Expi293F cells, transient transfection, purified (Ni-NTA, SEC)

[3] = molecular target: SARS-CoV-2 RBD (residues 323-528) (SARS-CoV-2 WA1); assay: crystal structure

B1: M8a-28 IgG (antibody, V domains shown)
VH: QVQLQQPGAELVKPGASVKMSCKASGYNFNHYWISWVKQRPGQGLEWIGDIYPLSHFTTYNEKFTNRATLTVDTSSTTAYMQLNSLTSDDSAVFYCARWDYFDSRTFDYWGQGTTLTVSS
VL: DILLTQFPAILSVSPGERVSFSCRASQTIGTNIHWYQQRINGSPRLLIKYASESISGIPSRFSGSGSGTDFSLSINNVESEDIADYYCQQINSWPLTFGAGTKLDLK
notes: copies: 2 + 2
B1: binds (SARS-CoV-2 WA1 RBD [1]).

B2: M8a-3 IgG (antibody, V domains shown)
VH: QVQLQQPGAELVLPGASVKLSCKASGYTFTNYWMHWVKQRPGHGLEWIGEIDPFDTYIKINQKFKGKSTLTVDTSSSTAYMQLSSLTSEDSAVYYCARPDSSGYPVYFDYWGQGTTLTVSS
VL: DIVMTQSHKFMSTSVGDRVSITCKASQDVGTYIAWYQQKPGQSPKLLIYWASTRHTGVPDRFTGSGSGTNYTLTISSVQAEDLALYHCQQHYSTPYTFGGGTKLEIK
notes: copies: 2 + 2
In the case of B2, the Kd (SARS-CoV-2 WA1 RBD [2]) is reported as 0.86 nM, the koff (SARS-CoV-2 WA1 RBD [2]) is reported as 0.00016 s⁻¹ and the kon (SARS-CoV-2 WA1 RBD [2]) is reported as 190000 M⁻¹ s⁻¹.

B3: M8a-3 IgG (antibody, V domains shown)
VH: B2 VH
VL: B2 VL
notes: copies: 2 + 2
B3: binds (Yun11-CoV RBD).

B4: M8a-34 IgG (antibody, V domains shown)
VH: QVQLQQPGAELVKPGASVKMSCKASGYTFITYWITWVKQRPGQGLEWIGDIYPGGGRTNYNEKFKSKATLTVDTSSSTAYMQLRSLTSEDSAVYYCARYDGNYVGYYYAMDYWGQGTSVTVSS
VL: DIVLTQSPVSLAVSLGQRATISCRASESVDFYGNSFIYWYQQKPGQAPKLLIYRASNLESGIPARFSGSGSRTDFTLTIHPVEADDVATYYCQQSIEDPRTFGGGTKLEIK
notes: copies: 2 + 2
B4: binds (SARS-CoV-2 WA1 RBD [1]); binds (Rf1-CoV RBD); binds (Yun11-CoV RBD).

B5: M8a-34 Fab (Fab, V domains shown)
VH: B4 VH
VL: B4 VL
B5: binds [3].

B6: M8a-31 IgG (antibody, V domains shown)
VH: EVQLKQSVAELVRPGASVKVSCTASGFNIKNIYMHWVKQRPEQGLDWIGRIDPANGNSRYAPKFQDKATITADTSSNTAYLQLSSLTSEDTAIYYCADEGWGFANWGQGTLVTVSA
VL: DIVMTQSPSSLTVTAGEKVTMSCKSSQSLLNSGNQKNYLTWYQQKVGQPPKLLIYWASTRDPGVPDRFTGSGFGTDFTLTISSVQAEDLAVYYCQNDYSYPLTFGAGTKVELK
notes: copies: 2 + 2
B6: binds (SARS-CoV-2 WA1 RBD [1]); binds (Rf1-CoV RBD); binds (Yun11-CoV RBD).

B7: M8a-6 IgG (antibody, V domains shown)
VH: QVQLQQPGTELVMPGASVKLSCKTSGYTFTHYWMHWVKQRPGEGLEWIGEIAPSDNYVKYNQKFKGKSTLSVDRSSSTAYMQLSSLTSEDSAVYFCARPDNSGYPVYFDYWGQGTSLTVSS
VL: DIVMTQSQKFMSTSLGDRVSISCKASQDVGTTVAWYQQKPGQSPKLLIYWASTRHTGVPDRFTGTGSGTDYTLTISSVAAEDLALYYCQQHYNTPYTFGGGTKLEIE
notes: copies: 2 + 2
With B7 the Kd (SARS-CoV-2 WA1 RBD [2]) was 104 nM.

B8: M8a-6 Fab (Fab, V domains shown)
VH: B7 VH
VL: B7 VL
notes: source: Expi293 cells, transient transfection, purified (Ni-NTA, SEC)
B8: binds [3].

B9: HSW-2 Fab (Fab, V domains shown)
VH: QVQLQQSGPELVKPGASVKISCKASGYVFSTSWMSWVKQRPGEGPEWIGRIYPRDGHSSSTGKFKDKATLTADKSSNTAYIHLSSLTSEDSAVYFCARDYGYYYFDYWGQGTTLTVSS
VL: DIQMTQSPASLSASVGEAVTITCRLSENVYSFLAWYQQKQGKSPQLLVYRAKTLAEGVPSRFSGSGSGTQFSLKINSLQPEDFGTYYCQHHYGTPPTFGGGTKLEIK
B9: binds [3].

B10: HSW-2 IgG (antibody, V domains shown)
VH: B9 VH
VL: B9 VL
notes: copies: 2 + 2
B10: binds (SARS-CoV-2 WA1 RBD [1]).

B11: HSW-1 IgG (antibody, V domains shown)
VH: QVQLQQPGAELVKPGTSMKLSCKASGYTFTSYWMHWVKQRPGQGLEWIGMIHPNSGSTKYNENFKSKATLTVDKSSSTAYMQFSSLTSEDSAVYYCVRSGSYYGTTYDYFDYWGQGTTLTVSS
VL: DIVLTQSPASLAVSLGQRATISCRASESVNIYGNSFMHWYQQKPGQPPKLLIFRASNLESGIPVRFSGSGSRTDFTLTINPVEADDVATYYCHQSNEDPFTFGSGTKLEIK
notes: copies: 2 + 2
B11: binds (SARS-CoV-2 WA1 RBD [1]).

B12: C118 IgG (antibody, V domains shown)
VH: QVQLVESGGGVVQPGRSLRLSCAASGFTFSNYAMHWVRQAPGKGLEWVAVISYDGSNKYYADSVKGRFTISRDNSKNTLYLQMNSLRAEDTAIYYCASGYTGYDYFVRGDYYGLDVWGQGTTVTVSS
VL: QPVLTQSPSASASLGASVKLTCTLSSGHSSYAIAWHQQQPEKGPRYLMKLNTDGSHSKGDGIPDRFSGSSSGAERYLTISSLQSEDEADYYCQTWGTGILVFGGGTKLTVL
notes: copies: 2 + 2
B12 gave a Kd (SARS-CoV-2 WA1 RBD [2]) of 0.19 nM, a koff (SARS-CoV-2 WA1 RBD [2]) of 3.5e-05 s⁻¹ and a kon (SARS-CoV-2 WA1 RBD [2]) of 180000 M⁻¹ s⁻¹.
